# Experiment: yeast display, Sf9 membrane polyspecificity reagent, FACS + sequencing; frameworks hold sequencing errors
# Summary of the method: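 Sorting gates, low and high (top ~1%), were placed on anti-HA fluorescence to track expression and on streptavidin fluorescence to track reagent binding. A clone's polyreactivity label is taken from the gate it came out of. The reagent was 10% biotinylated, detergent-solubilized Sf9 membrane, applied for 1 hour at 4 °C to galactose-induced yeast display cells.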
row,Sequence,polyreactivity (PSR sort gate)
1,QVQLVESGGGLVQAGGSLRLSCAASGIIFGENAMGWYRQAPGKERELVAAINSVGSTYYADSVKGRFTISRDNAKNTVYLQMNSLKPEDTAVYYCAAESWFLRWYRYDYWGQGTQVTVSS,low polyreactivity
2,QVQLVESGGGLVQAGGSLRLSCAASGIIFGFNAMRWYRQAPGKEREFVADITYSGGSTYYADSVKGRFTISRDNAKNTVYLHMNSLKPEDTAVYYCAADEVSFWGYIYDYWGQGTQVTVSS,high polyreactivity
3,QVQLVESGGGLVQAGGSLRLSCAASGIIFGFYAMGWYRQAPGKERELVAAITNDGGITNYADSVKGRFTISRDNAMNTVYLQMNSLKPEDTAVYYCAKDQWPWVRDSLYTLRYDYWGQGTQVTVSS,low polyreactivity
4,QVQLVESGGGLVQAGGSLRLSCAASGIIFGGYDMGWYRQAPGKERELVAAISWSGGSTYYADSVKGRFTISRDNAKNTVYLQMNSLKPEDTAVYYCNAVGRRNVDSSLNDYWGQGTQVTVSS,low polyreactivity
5,QVQLVESGGGLVQAGGSLRLSCAASGIIFGHYAMGWYRQAPGKERELVARITYSGTRTYYADSVKGRFTISRDNAKNTVYLQMNSLKPEDTAVYYCAAGYAYPRWVTAGNNWGQGTQVTVSS,high polyreactivity
6,QVQLVESGGGLVQAGGSLRLSCAASGIIFGKYAMGWYRPAPGKDRELVAAINYSGSTYYADSVKGRFTISRDNAKNTVYLQMNSLKPEDTAVYYCAARNRTFFQPTYYYWGQGTQVTVSS,high polyreactivity
7,QVQLVESGGGLVQAGGSLRLSCAASGIIFGPYVMGWYRQAPGKERELVATISRTGDTYYADSVKGRFTISRDNAKNTVYLQMNSLKPEDTAVYYCAVEWSAHKYYYWGQGTQVTVSS,low polyreactivity
8,QVQLVESGGGLVQAGGSLRLSCAASGIIFGQNAMGWYRQAPGKERELVAAITISGGSTYYADSVKGRFTISRDNAKNTVYLQMNSLKPEDTAVYYCAARRVTWKDIARGYRYGYWGQGTQVTVSS,low polyreactivity
9,QVQLVESGGGLVQAGGSLRLSCAASGIIFGRYAMGWYRQAPGKERELVATISRSGGTTYYADSVKGRFTISRDNAKNTVYLQMNSLKPEDTAVYYCAARWTSRYDYWGQGTQVTVSS,high polyreactivity
10,QVQLVESGGGLVQAGGSLRLSCAASGIIFGSNAMGWYRQAPGKERELVAAITSGGNTYYADSVKGRFTISRDNAKNTVYLQMNSLKPEDTAVYYCAARRPRRYGYWGQGTQVTVSS,high polyreactivity
11,QVQLVESGGGLVQAGGSLRLSCAASGIIFGSNAMGWYRQSPGKERELVAAISRNGGRTYYADSVKGRFTISRDNAKNTVYLQMNSLKPEDTAVYYCATRWPHYGGYYYWGQGTQVTVSS,high polyreactivity
12,QVQLVESGGGLVQAGGSLRLSCAASGIIFGTYDMGWNRQAPGKERELVAANTSGTSTNYADSVKGRFTISRDNAMNTVYLQMNSLKPEDTAVYYCAADVYLYYPYFGHRRYNYWGQGTQVTVSS,high polyreactivity
13,QVQLVESGGGLVQAGGSLRLSCAASGIIFGVYAMGWYRQAPGKERELVAAIDGNGSSTYYADSVKGRFTISRDNAKNSVYLQMNSLKPEDTAVYYCNKDVARYPYGKFDYWGQGTQVTVSS,low polyreactivity
14,QVQLVESGGGLVQAGGSLRLSCAASGIIFGVYAMGWYRQAPGKERELVAAISWTGGSTFYADSVKGRFTISRDNAKITVYLQMNILKPEDTAVYYCAVDYWSGITWVEYWGQGTQVTVSS,high polyreactivity
15,QVQLVESGGGLVQAGGSLRLSCAASGIIFGWYAMGWYRQAPGKERELVAAISSGGRTNYADSVKGRFTISRDNAKNTVYLQMNSLKPEDTEVYYCAAAYIRGSRRYDYCGQGTQVTVSS,high polyreactivity
16,QVQLVESGGGLVQAGGSLRLSCAASGIIFGWYAMGWYRQAPGTERELVADISSDDSTYYADSVKGRFTISRDNAKNTVYLQMNSLKPEDTAVYDCAAETEYYSYRFDYWGQGTQVTVSS,high polyreactivity
17,QVQLVESGGGLVQAGGSLRLSCAASGIIFGYNAMGWYRQAPGKERELVAAISYGGGRSYYADSVKGRFTISRDNAKNTVYFQMNSLKPEDTAVYYCAAQYFASRSYGYDYWGQGTQVTVSS,high polyreactivity
18,QVQLVESGGGLVQAGGSLRLSCAASGIIFGYYAMGGYRQAPGKERELVAAISSRGSRTYYADSVKGRFTISRDNAKNTVYLQMNSLKPEDTAVYYCAARHFARMGYWGQGTQVTVSS,high polyreactivity
19,QVQLVESGGGLVQAGGSLRLSCAASGIIFGYYAMGWYRQAPAKERELVAAISQSGGDTYYADSVKGRYTISRDLAKNTVYLQMNSVKPEDTAVYYCAASVWYYPMDYWGQGTHVTVSS,low polyreactivity
20,QVQLVESGGGLVQAGGSLRLSCAASGIIFGYYAMGWYRQAPGKERELVAAIDWTGGNTYYAVSVKGRFTISRDNAKNTVYLQMNSLKPEDTAVYYCAADYNSQEDYWGQGTQVTVSS,low polyreactivity
21,QVQLVESGGGLVQAGGSLRLSCAASGIIFGYYAMGWYRQAPGKERELVAAISGNGGSTYYADSVKGRFTLSRDNAKITVYLQMNSLKPEDTAVYYCAARRGYRYGPRYDYWGQGTQVTVSS,high polyreactivity
22,QVQLVESGGGLVQAGGSLRLSCAASGIIFGYYAMGWYRQAPGKERELVASIIWSGGSTYYADSVKGRFTISRDNAKNTVYLQMNSLKPEDTAVYYCAAYRYQEYDYWGQGTQVTVSS,high polyreactivity

row,Sequence,polyreactivity (PSR sort gate)
1,QVQLVESGGGLVQAGGSLRLSCAASGIIFHGNAMGWYRQAPGKERELVAAIRWSGGSTYYADSVKGRFTISRDNAKNSVYLPMNSLKPEDTAVYYCNAGRSWRRTHYDYWGQGTQVTVSS,high polyreactivity
2,QVQLVESGGGLVQAGGSLRLSCAASGIIFIGYAMGWYRQAAGKERELVAAITRSGVSTYYADSVKGRFTISRDNAKNTVYLQMNSLKPEDTAVYYCAARYFGEKYSQGFDYWGQGTQVTVSS,low polyreactivity
3,QVQLVESGGGLVQAGGSLRLSCAASGIIFIHYAMGWYRQAPGKERELVAAITSGGSTNYADSVKGRFTISRDNAKNTVYLQMNSLKPEDTAVYYCNAEPVASYYRVSDYEYWGQGTQVTVSS,low polyreactivity
4,QVQLVESGGGLVQAGGSLRLSCAASGIIFIHYTMGWYRQAPGKERELVAAISWSGGSTYYADSVKGRFTISRDNAKNTVYLQMNSLKPEDTAVYYCAADYIFYHRMYYWGQGTQVTVSS,high polyreactivity
5,QVQLVESGGGLVQAGGSLRLSCAASGIIFIKYAMGWYRQAPGKERELVAGINVSSGGDTYADSVKGRFTISRDNAKNTVYLQMNSLKPEDTAVYYCNAGTGGPDYVFITEYDYWGQGTQVTVSS,low polyreactivity
6,QVQLVESGGGLVQAGGSLRLSCAASGIIFINYVMGWYRQAPGKERELVAAISIGGGRTYYADSVKGRFTISRDNAKNTVYLQMNSLKPEDTAVYYCAAEYFYGYKDVYDYWGQGTQVTVSS,high polyreactivity
7,QVQLVESGGGLVQAGGSLRLSCAASGIIFIYNAMGWYRQAPGKERELVADIRRSGSTSYADSVKGRFTISRDNAKNTVYLQMNSLKPEDTAVYYCAADTSTWFGAYYLRDPYDYWGQGTQVTVSS,low polyreactivity
8,QVQLVESGGGLVQAGGSLRLSCAASGIIFKGYDMGWYRQAPGKERELVAAISSGSTNYADSVKGRFTISRDNAKNTVYLQMNSLKPEDTAVYYCAVRTYRYQSWGNYYLEYDYWGQGTQVTVSS,low polyreactivity
9,QVQLVESGGGLVQAGGSLRLSCAASGIIFKIYAMGWYRQAPGKARELVAAISWRGGSTYYADSVKGRFTISRDNAKNTVYLQMNSLKPEDTAVYYCAAARGYRTGYGYWGQGTQVTVSS,high polyreactivity
10,QVQLVESGGGLVQAGGSLRLSCAASGIIFKQYAMGWYRQAPGKERELVAAITGSGGRTTYADSVKGRFTISRDNAMNTVYLQMNSLKPEDTAVYFCAAVGLSGWRDGYWGQGTQVTVSS,high polyreactivity
11,QVQLVESGGGLVQAGGSLRLSCAASGIIFKRNAMGWYRQAPGKERELVAAITYRGTSTYYADSVKGRFTISRDNAKNTVYLQMNSLKPEDTAVYYCNAVGRSSGSAFNYWGQGTQVTVSS,high polyreactivity
12,QVQLVESGGGLVQAGGSLRLSCAASGIIFKRYVMGWYRQAPGKDRQLVAGISWSGVSTFYADSVKGRFTISRDNAKNTVYLQMNSLKPEDTAVYYCAADRARYYYQAYGAYGYWGQGTQVTVSS,high polyreactivity
13,QVQLVESGGGLVQAGGSLRLSCAASGIIFKSYVMGWYRQAPGKEREFVARITYRGGSTYYADSVKGRFTISRDNAKNTVYLQMNSLKPEDTAVYYCNKKNPQDLTENGYWGQGTQVTVSS,high polyreactivity
14,QVQLVESGGGLVQAGGSLRLSCAASGIIFKTYAMGWYRQAPGKERELVAGIDYSGGGTSYADSVKGRFTISRDNAKNTVYLQMNSLKPEDTAVYYCAADAYSGAYFTYLGEIYDYWGQGTQVTVSS,low polyreactivity
15,QVQLVESGGGLVQAGGSLRLSCAASGIIFKTYTMGWYRTAPGKERELVAAITFSGGSTYYADSVKGRFTISRDNAKNTVYLQMNSLKPEDTAVYYCADTHRFWWYSDDYWGQGTQVTVSS,high polyreactivity
16,QVQLVESGGGLVQAGGSLRLSCAASGIIFKVYAMGWYRQAPGKERELVAAISKSGGSTYYADSVKGRFTISRDNAKNTVYLQMNSLNPEDTAVYYCAARDYARYASYYYWGQGTQVTVSS,high polyreactivity
17,QVQLVESGGGLVQAGGSLRLSCAASGIIFLDNAMGWYRQAPGKERELVAAITTGGITYYADSVKGRFTISRDNAKNTVYLQMNSLKPEDTAVYYCAADNEWPRYDYWGQGTQVTVSS,low polyreactivity
18,QVQLVESGGGLVQAGGSLRLSCAASGIIFLDYVMGWYRQAPGKERELVAAINSGGSTYYADSVKGRFTISRANAKNNVYLQMNSLKPEDSAVYYCNAVFYDDWQIYDYWGQGTQVTVSS,low polyreactivity
19,QVQLVESGGGLVQAGGSLRLSCAASGIIFLKNAMGWYRQAPGKERELVAAITVSGARTYYADSVKGRFTISRDNAKNTVYLQMNSLKPEDTAVYYCATDRSYQRYNYWGQGTQVTVSS,high polyreactivity
20,QVQLVESGGGLVQAGGSLRLSCAASGIIFLKYAMGWYRQAPGKERELVAGISVRGGRTYYADSVKGRFTISRDNAKNTVYLQMNSLKPEDTAVYYCAKERSRYYPYDYWGQGTQVTVSS,high polyreactivity
21,QVQLVESGGGLVQAGGSLRLSCAASGIIFLNNAMGCYRQAPGKERELVAAITRTSTSTYYADSVKGRFTISRDNAKNTVYLQMNSLKPEDTAVYYSLVYWGQGTQVTVSS,low polyreactivity

# — the nanobody polyreactivity screen of Harvey et al. (2022)
